One data set deals with T1, TatCel7A (Trichoderma atroviride, UniProt G9NTY1).
T1 construct: gene TRIATDRAFT_88458
Briefly: competitive (product) inhibition of pNP-Lac hydrolysis, pH […] °C. The data set is classed as biochemical.

The target of a further data set is T2, ThaCel7A (Trichoderma harzianum, UniProt Q9P8P3).
T2 construct: gene cbh1
T2 sequence (Q9P8P3 18-443): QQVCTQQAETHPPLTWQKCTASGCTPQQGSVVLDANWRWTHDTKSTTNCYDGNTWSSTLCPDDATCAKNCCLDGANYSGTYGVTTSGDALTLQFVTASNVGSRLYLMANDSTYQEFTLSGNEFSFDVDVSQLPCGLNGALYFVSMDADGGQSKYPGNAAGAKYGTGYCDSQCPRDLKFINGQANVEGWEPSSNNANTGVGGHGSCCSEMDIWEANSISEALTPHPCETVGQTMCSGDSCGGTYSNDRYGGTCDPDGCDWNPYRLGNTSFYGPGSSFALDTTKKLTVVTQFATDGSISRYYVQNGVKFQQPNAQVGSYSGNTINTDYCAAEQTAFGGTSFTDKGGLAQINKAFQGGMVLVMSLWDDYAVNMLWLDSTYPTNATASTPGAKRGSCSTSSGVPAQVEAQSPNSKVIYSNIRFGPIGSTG
The description is as above. The data set is classed as biochemical.

The target in the next data set is T3, TreCel7A (Trichoderma reesei, UniProt P62694).
T3 construct: gene cbh1
T3 sequence (P62694 18-451): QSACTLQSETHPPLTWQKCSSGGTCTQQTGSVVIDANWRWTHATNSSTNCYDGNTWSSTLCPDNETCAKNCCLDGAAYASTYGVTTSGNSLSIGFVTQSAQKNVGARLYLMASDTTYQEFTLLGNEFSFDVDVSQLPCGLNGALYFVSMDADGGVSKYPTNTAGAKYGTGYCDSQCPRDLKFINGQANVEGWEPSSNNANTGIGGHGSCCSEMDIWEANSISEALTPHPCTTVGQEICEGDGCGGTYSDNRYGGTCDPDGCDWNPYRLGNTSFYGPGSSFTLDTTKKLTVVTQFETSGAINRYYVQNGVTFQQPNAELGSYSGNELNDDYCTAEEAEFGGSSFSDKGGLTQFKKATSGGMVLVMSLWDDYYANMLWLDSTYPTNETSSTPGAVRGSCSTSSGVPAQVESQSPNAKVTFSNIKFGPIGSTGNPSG
The description is as above. The data set is classed as biochemical.

Substrate in data set [1]: [H][C@@]1(O[C@H]2[C@H](O)[C@@H](O)[C@H](Oc3ccc([N+](=O)[O-])cc3)O[C@@H]2CO)O[C@H](CO)[C@H](O)[C@H](O)[C@H]1O
Kind of data set: purified protein. Format: biochemical, Trichoderma reesei. The note with it: subsites (−[…]/−[…]/+[…]) where pNP-Lac should bind for hydrolysis; pH 4.5; 30.0 °C.

Substrate in data set [2]: [H][C@@]1(O[C@H]2[C@H](O)[C@@H](O)[C@H](Oc3ccc([N+](=O)[O-])cc3)O[C@@H]2CO)O[C@H](CO)[C@H](O)[C@H](O)[C@H]1O
Briefly: purified protein. The data set is classed as biochemical, Trichoderma harzianum. The note with it: subsites (−[…]/−[…]/+[…]) where pNP-Lac should bind for hydrolysis; pH 4.5; 30.0 °C.

Substrate in data set [3]: [H][C@@]1(O[C@H]2[C@H](O)[C@@H](O)[C@H](Oc3ccc([N+](=O)[O-])cc3)O[C@@H]2CO)O[C@H](CO)[C@H](O)[C@H](O)[C@H]1O
Briefly: purified protein. The note with it: subsites (−[…]/−[…]/+[…]) where pNP-Lac should bind for hydrolysis; pH 4.5; 30.0 °C. Format: biochemical, Trichoderma atroviride.

The term Ki denotes a dissociation constant, usually derived from enzyme kinetics or from competition with a known ligand. A high value points to weaker binding. By Km is commonly meant the concentration of substrate that gives half-maximal velocity. Broadly, the kcat is the maximal rate divided by the concentration of active sites. A word on the kcat/Km: it is the second-order rate constant that governs catalysis at low substrate concentration.

Consider `OC[C@H]1O[C@@H](O[C@H]2[C@H](O)[C@@H](O)C(O)O[C@@H]2CO)[C@H](O)[C@@H](O)[C@@H]1O` (stereo partly drawn) [cellobiose], for which the values for the Ki at TatCel7A, on ThaCel7A and at TreCel7A were 72 µM, 49 µM and 24 µM, respectively.

B1: TreCel7A (Trichoderma reesei) (protein)
chain: QSACTLQSETHPPLTWQKCSSGGTCTQQTGSVVIDANWRWTHATNSSTNCYDGNTWSSTLCPDNETCAKNCCLDGAAYASTYGVTTSGNSLSIGFVTQSAQKNVGARLYLMASDTTYQEFTLLGNEFSFDVDVSQLPCGLNGALYFVSMDADGGVSKYPTNTAGAKYGTGYCDSQCPRDLKFINGQANVEGWEPSSNNANTGIGGHGSCCSEMDIWEANSISEALTPHPCTTVGQEICEGDGCGGTYSDNRYGGTCDPDGCDWNPYRLGNTSFYGPGSSFTLDTTKKLTVVTQFETSGAINRYYVQNGVTFQQPNAELGSYSGNELNDDYCTAEEAEFGGSSFSDKGGLTQFKKATSGGMVLVMSLWDDYYANMLWLDSTYPTNETSSTPGAVRGSCSTSSGVPAQVESQSPNAKVTFSNIKFGPIGSTGNPSG
For the molecule B1, in “purified protein [1]”, the Km was 0.72 mM, the kcat was 0.057 s⁻¹ and the kcat/Km is 79 M⁻¹ s⁻¹.

B2: ThaCel7A (Trichoderma harzianum) (protein)
chain: QQVCTQQAETHPPLTWQKCTASGCTPQQGSVVLDANWRWTHDTKSTTNCYDGNTWSSTLCPDDATCAKNCCLDGANYSGTYGVTTSGDALTLQFVTASNVGSRLYLMANDSTYQEFTLSGNEFSFDVDVSQLPCGLNGALYFVSMDADGGQSKYPGNAAGAKYGTGYCDSQCPRDLKFINGQANVEGWEPSSNNANTGVGGHGSCCSEMDIWEANSISEALTPHPCETVGQTMCSGDSCGGTYSNDRYGGTCDPDGCDWNPYRLGNTSFYGPGSSFALDTTKKLTVVTQFATDGSISRYYVQNGVKFQQPNAQVGSYSGNTINTDYCAAEQTAFGGTSFTDKGGLAQINKAFQGGMVLVMSLWDDYAVNMLWLDSTYPTNATASTPGAKRGSCSTSSGVPAQVEAQSPNSKVIYSNIRFGPIGSTG
As to B2, in “purified protein [2]”, the Km was found to be 0.90 mM, the kcat was determined as 0.067 s⁻¹ and the specificity constant (kcat/Km) is 75 M⁻¹ s⁻¹.

B3: TatCel7A (Trichoderma atroviride IMI 206040) (protein)
chain: QQVCTTQAETHPALSWSKCTSGGSCTTQAGKVVLDANWRWTHAYPSGNNCYNGNTWDATLCPDDATCAKNCCLEGADYSGTYGVTTSGNQLTIDFVTQSANKNVGARLYLMASDTAYEEFTLLNNEFSFDVDVSALPCGLNGALYFVSMDADGGASKYPTNLAGAKYGTGYCDSQCPRDLKFISGQANVEGWQPSSNNANTGIGGHGSCCSEMDIWEANSISQALTPHPCETVGQVTCSGDDCGGTYSNNRYGGTCDPDGCDWNPYRLGNHTFYGPGSGFTVDTTKKITVVTQFSSTGINRYYVQNGVKFVQPNASGLSGYTGNTINSAYCSAEQTAFGGTSFTDKGGLTQMNKALSGGMVLVLSLWDDYAANMLWLDSTYPTNDTASTPGAARGTCSTSSGVPATVEQQSPNSKVVFSNIKFGPIGSTG
For B3, in “purified protein [3]”, the Km is on record as 1.00 mM, the kcat is 0.019 s⁻¹ and the specificity constant (kcat/Km) was 19 M⁻¹ s⁻¹.

The values above are taken from PMC5766984, “Correlation of structure, function and protein dynamics in GH7 cellobiohydrolases from Trichoderma atroviride, T. reesei and T. harzianum” (Biotechnology for Biofuels, 2018).
